{
  "source": "patent US20240252614A1",
  "about": "(Pfizer, published 2024)",
  "test_in_all_cases": "BLI, 53C stress",
  "key": {"[1]": {"target": "T1, hMPV044 (hMPV A, UniProt Q6WB98 19-102)", "T1 construct": "T411C-Q434C", "experimental": "(§1) The OCTET HTX (Sartorius, Gottingen, Germany) instrument was used to evaluate the expression and conformational integrity for each mutant. All measurements were conducted at 30° C. temperature in 96-well black plates (Corning, Corning, NY) with a final volume of 240 μL per well at a constant agitation rate of 1000 RPM.\n(§2) Conformation integrity of hMPV A F protein mutants were evaluated by thermal stress experiments. Crude cell culture supernatants were normalized based on the results of the titer quantitation and then incubated for 1 hour at room temperature and two higher temperatures. […] Anti-Human IgG Fc Capture (AHC) biosensors were first equilibrated in PB before being dipped into more PB to establish the initial baseline. […] The mAb-bound biosensors were then dipped into the thermal stressed cell culture supernatants for 5 minutes. The kinetics analysis was done by OCTET data analysis software (version 12.0, Sartorius) based on curve fitting of the entire associate step."}, "[2]": {"target": "T2, hMPV048 (hMPV A, UniProt Q6WB98 19-102)", "T2 construct": "L141C-A161C", "experimental": "as §1, §2"}, "[3]": {"target": "T3, hMPV066 (hMPV A, UniProt Q6WB98 19-102)", "T3 construct": "T49I", "experimental": "as §1, §2"}, "[4]": {"target": "T4, hMPV047 (hMPV A, UniProt Q6WB98 19-102)", "T4 construct": "L141C-A159C", "experimental": "as §1, §2"}, "[5]": {"target": "T5, hMPV061 (hMPV A, UniProt Q6WB98 19-102)", "T5 construct": "G106A", "experimental": "as §1, §2"}, "[6]": {"target": "T6, hMPV046 (hMPV A, UniProt Q6WB98 19-102)", "T6 construct": "A140C-S149C", "experimental": "as §1, §2"}, "[7]": {"target": "T7, hMPV077 (hMPV A, UniProt Q6WB98 19-102)", "T7 construct": "Q476C, S477C", "experimental": "as §1, §2"}, "[8]": {"target": "T8, hMPV060 (hMPV A, UniProt Q6WB98 19-102)", "T8 construct": "A459P", "experimental": "as §1, §2"}, "[9]": {"target": "T9, hMPV063 (hMPV A, UniProt Q6WB98 19-102)", "T9 construct": "G239A", "experimental": "as §1, §2"}, "[10]": {"target": "T10, hMPV075 (hMPV A, UniProt Q6WB98 19-102)", "T10 construct": "L473F", "experimental": "as §1, §2"}, "[11]": {"target": "T11, hMPV059 (hMPV A, UniProt Q6WB98 19-102)", "T11 construct": "V449P", "experimental": "as §1, §2"}, "[12]": {"target": "T12, hMPV049 (hMPV A, UniProt Q6WB98 19-102)", "T12 construct": "E146C-T160C", "experimental": "as §1, §2"}, "[13]": {"target": "T13, hMPV062 (hMPV A, UniProt Q6WB98 19-102)", "T13 construct": "G121A", "experimental": "as §1, §2"}, "[14]": {"target": "T14, hMPV058 (hMPV A, UniProt Q6WB98 19-102)", "T14 construct": "L187P", "experimental": "as §1, §2"}, "[15]": {"target": "T15, hMPV052 (hMPV A, UniProt Q6WB98 19-102)", "T15 construct": "L66P", "experimental": "as §1, §2"}, "[16]": {"target": "T16, hMPV053 (hMPV A, UniProt Q6WB98 19-102)", "T16 construct": "L110P", "experimental": "as §1, §2"}, "[17]": {"target": "T17, hMPV050 (hMPV A, UniProt Q6WB98 19-102)", "T17 construct": "V148C-L158C", "experimental": "as §1, §2"}, "[18]": {"target": "T18, hMPV043 (hMPV A, UniProt Q6WB98 19-102)", "T18 construct": "G366C-D454C", "experimental": "as §1, §2"}, "[19]": {"target": "T19, hMPV068 (hMPV A, UniProt Q6WB98 19-102)", "T19 construct": "A159V", "experimental": "as §1, §2"}, "[20]": {"target": "T20, hMPV069 (hMPV A, UniProt Q6WB98 19-102)", "T20 construct": "S291I", "experimental": "as §1, §2"}, "[21]": {"target": "T21, hMPV071 (hMPV A, UniProt Q6WB98 19-102)", "T21 construct": "T365I", "experimental": "as §1, §2"}, "[22]": {"target": "T22, hMPV054 (hMPV A, UniProt Q6WB98 19-102)", "T22 construct": "S132P", "experimental": "as §1, §2"}, "[23]": {"target": "T23, hMPV045 (hMPV A, UniProt Q6WB98 19-102)", "T23 construct": "I137C-A159C", "experimental": "as §1, §2"}, "[24]": {"target": "T24, hMPV055 (hMPV A, UniProt Q6WB98 19-102)", "T24 construct": "N145P", "experimental": "as §1, §2"}, "[25]": {"target": "T25, hMPV A F WT Control (hMPV A, UniProt Q6WB98 19-102)", "experimental": "as §1, §2"}, "[26]": {"target": "T26, hMPV085 (hMPV A, UniProt Q6WB98 19-102)", "T26 construct": "T411C-Q434C, L141C-A161C, A459P", "experimental": "as §1, §2"}, "[27]": {"target": "T27, hMPV081 (hMPV A, UniProt Q6WB98 19-102)", "T27 construct": "T411C-Q434C, A140C-S149C, T365I", "experimental": "as §1, §2"}, "[28]": {"target": "T28, hMPV083 (hMPV A, UniProt Q6WB98 19-102)", "T28 construct": "T411C-Q434C, A140C-S149C, A459P, G239A, T49I, T365I", "experimental": "as §1, §2"}, "[29]": {"target": "T29, hMPV090 (hMPV A, UniProt Q6WB98 19-102)", "T29 construct": "T411C-Q434C, L141C-A161C, A459P, G239A, T49I, S149T, T365I", "experimental": "as §1, §2"}, "[30]": {"target": "T30, hMPV079 (hMPV A, UniProt Q6WB98 19-102)", "T30 construct": "T411C-Q434C, A140C-S149C, A459P", "experimental": "as §1, §2"}, "[31]": {"target": "T31, hMPV097 (hMPV A, UniProt Q6WB98 19-102)", "T31 construct": "T411C-Q434C, E146C-T160C, A459P, G239A, T49I, S149T, T365I", "experimental": "as §1, §2"}, "[32]": {"target": "T32, hMPV089 (hMPV A, UniProt Q6WB98 19-102)", "T32 construct": "T411C-Q434C, L141C-A161C, S149T", "experimental": "as §1, §2"}, "[33]": {"target": "T33, hMPV086 (hMPV A, UniProt Q6WB98 19-102)", "T33 construct": "T411C-Q434C, L141C-A161C, T49I; also called hMP0086", "experimental": "as §1, §2"}, "[34]": {"target": "T25, hMPV A F WT Control", "remark": "listed apart in the source", "experimental": "as §1, §2"}},
  "note": "Read-outs that look alike come from different tables or passages of the source.",
  "data": [
    {"binder": "hMPV-2 mAb (antibody, V domains shown, human IgG1) VH: QVQLQQSGAEVKKPGASVKVSCKASGYTFTSYGISWVRQAPGQGLEWMGWISGYNGNTNYAQTFQGTFTMTTDTSTSTAYMELRRLRSGDTAVYYCARDRYYASGSYNGMDVWGQGTTVTVSS VL: QSALTQPPSASGAPGQRVTVSCSGSSSNVGSSSVYWYQQLPGTAPKLLIYRNNQRPSGVPDRFSGSKSGTSASLAISGLRSEDEADYYCAAWDDSLSGWVFGGGTKLTVLG", "values": [
      {"measurement": "Response Shift", "setting": "[1]", "value": 0.618, "unit": "nm"},
      {"measurement": "Response Shift", "setting": "[2]", "value": -0.059, "unit": "nm"},
      {"measurement": "Response Shift", "setting": "[3]", "value": 0.265, "unit": "nm"},
      {"measurement": "Response Shift", "setting": "[4]", "value": -0.079, "unit": "nm"},
      {"measurement": "Response Shift", "setting": "[5]", "value": -0.073, "unit": "nm"},
      {"measurement": "Response Shift", "setting": "[6]", "value": 0.196, "unit": "nm"},
      {"measurement": "Response Shift", "setting": "[7]", "value": -0.007, "unit": "nm"},
      {"measurement": "Response Shift", "setting": "[8]", "value": -0.045, "unit": "nm"},
      {"measurement": "Response Shift", "setting": "[9]", "value": 0.001, "unit": "nm"},
      {"measurement": "Response Shift", "setting": "[10]", "value": -0.082, "unit": "nm"},
      {"measurement": "Response Shift", "setting": "[11]", "value": -0.051, "unit": "nm"},
      {"measurement": "Response Shift", "setting": "[12]", "value": -0.011, "unit": "nm"},
      {"measurement": "Response Shift", "setting": "[13]", "value": 0.013, "unit": "nm"},
      {"measurement": "Response Shift", "setting": "[14]", "value": -0.052, "unit": "nm"},
      {"measurement": "Response Shift", "setting": "[15]", "value": -0.044, "unit": "nm"},
      {"measurement": "Response Shift", "setting": "[16]", "value": 0.017, "unit": "nm"},
      {"measurement": "Response Shift", "setting": "[17]", "value": -0.032, "unit": "nm"},
      {"measurement": "Response Shift", "setting": "[18]", "value": 0.03, "unit": "nm"},
      {"measurement": "Response Shift", "setting": "[19]", "value": 0.022, "unit": "nm"},
      {"measurement": "Response Shift", "setting": "[20]", "value": -0.005, "unit": "nm"},
      {"measurement": "Response Shift", "setting": "[21]", "value": -0.046, "unit": "nm"},
      {"measurement": "Response Shift", "setting": "[22]", "value": -0.072, "unit": "nm"},
      {"measurement": "Response Shift", "setting": "[23]", "value": -0.048, "unit": "nm"},
      {"measurement": "Response Shift", "setting": "[24]", "value": -0.073, "unit": "nm"},
      {"measurement": "Response Shift", "setting": "[25]", "value": -0.026, "unit": "nm"},
      {"measurement": "Response Shift", "setting": "[26]", "value": 0.672, "unit": "nm"},
      {"measurement": "Response Shift", "setting": "[27]", "value": 0.778, "unit": "nm"},
      {"measurement": "Response Shift", "setting": "[28]", "value": 0.755, "unit": "nm"},
      {"measurement": "Response Shift", "setting": "[29]", "value": 0.815, "unit": "nm"},
      {"measurement": "Response Shift", "setting": "[30]", "value": 0.73, "unit": "nm"},
      {"measurement": "Response Shift", "setting": "[31]", "value": 0.82, "unit": "nm"},
      {"measurement": "Response Shift", "setting": "[32]", "value": 0.801, "unit": "nm"},
      {"measurement": "Response Shift", "setting": "[33]", "value": 0.746, "unit": "nm"},
      {"measurement": "Response Shift", "setting": "[34]", "value": -0.014, "unit": "nm"}
    ]}
  ]
}
